Results: article PMC5428437, “The function of two P450s, CYP9M10 and CYP6AA7, in the permethrin resistance of Culex quinquefasciatus” (Scientific Reports, 2017)

Columns and labels:
[1] = substrate: CCOc1ccc2ccc(=O)oc2c1; test: 7-ethoxycoumarin O-deethylation (ECOD), fluorescence of 7-hydroxycoumarin, Sf9 microsomes; format: biochemical, Culex quinquefasciatus; settings: 1 mM NADPH, 0.1 M sodium phosphate pH 7.5, 30 °C, 30 min, substrate 0.1 to 1.2 mM, apparent
Text: 7-ethoxycoumarin O-deethylation (ECOD), fluorescence of 7-hydroxycoumarin, Sf9 microsomes on CYP6AA7/CPR

[2] = substrate: CCOc1ccc2ccc(=O)oc2c1; test: as above; format: biochemical, Culex quinquefasciatus; settings: 1 mM NADPH, 0.1 M sodium phosphate pH 7.5, 30 °C, 30 min, substrate 0.1 to 1.2 mM, apparent; remark: listed apart in the source
Text: 7-ethoxycoumarin O-deethylation (ECOD), fluorescence of 7-hydroxycoumarin, Sf9 microsomes on CYP9M10/CPR

Row | Protein | Km [1] [µM] | Km [2] [µM]
1 | CYP6AA7/CPR (Culex quinquefasciatus) (protein, complete reading frames cloned from 4th instar larvae cDNA; microsomal protein, not purified; with NADPH--cytochrome P450 reductase) MSLLNTLLYLVLPVAALIYLFVRRKLSYWADRNVPHAPGSFPMGSLQGMGTKYHMSHILERIYQQFKNESPAVGFYLTMKPTLMVTDLELVKQVLVKDFNSFRDRGVYYNEKDDPVSAHLFAIDGEKWRFLRNKLSPTFTSGKIKYMFNTMQEIGDEFVECFGRYEEREEAVDVKTLCGWFTCDVIGSCAFGLNCNSLKNEESELITIANRLFKPSPIDAMWQFFFMSFRDLSAKLRLLILPRDIAKYFMTLIPETVTYREQNNVTRPDFLQLLIQLKNKGTVDGAEQESSGETLTMNQVVAQSFVFMLGGFETTSTALTFALFELANNPEIQEKVRVEVSSVLARHDGKITYDALKEMTYLEQVVNETLRMYPPVPFVARNSNHSYHITHPDVTLDADTMVLVPVYAIHYDPDIYQNPTRFDPDRFTPEATQARHTHAFLPFGDGPRNCIGLRFALLEVKFGIAVLLSKFRFSPSAKMILPLELDISAPMMAAKGGVWLDVNKINSKE | 564.8 ± 14.7 | –
2 | CYP9M10/CPR (Culex quinquefasciatus) (protein, complete reading frames cloned from 4th instar larvae cDNA; microsomal protein, not purified; with NADPH--cytochrome P450 reductase) MTSLEWLLLLVPTAIYLFYRWSVATFDYFEKRGVPFVKPVPLLGGMWNFFSGKMHMVDAGSLGYEMFPDSRFSGFFAFRKPGYLIHDPELVKQITIKDFDHFADHTNVVPIEADPVLGRALFFTEGTRWKHGRSGLSPAFTGRKMRNMFALLSNYMEGAMGRLVDDARRDGGLELEMRDLFQKLGNDVTTSLSFGVEIDSVHNPNNEFMRRGKELIATDGIQGLKFLLLTVLPKSFFRTLRIRIIPKEATDFYVDVISKTIKQREEHNIVRPDFIHLLVQGRKNELKMEQADDQLKSAGFSTVEEHLQSSTENSQYSDLDITAAAASFFFGGLETTTTVICFALYEMSQNPNVKQKLQAEIDQVKEQLSTTDSKLSYEVLQNMKYLDMVVSETLRRWAPLGLTNRACTKPYTIEDNNGTKVSIQVGDLIQIPIQSIHRDHRFYPDPYKFDPERFSEENKANINRSAFLPFGSGPRNCIGSRLALMQTKCFLYYTLANFELELCPKTDVPIKLNKRSVSLDTLSGFWFRMVPRGEMKK | – | 779.3 ± 16.0
